Paper PMC7018383
Blank lines part the entries; values can stand above or below the substance they belong to.

Target: β2B (UniProt Q08289)
Assay: flow-cytometric FRET 2-hybrid

Sequence of Rad (O88667 whole entry, looked up, change not shown): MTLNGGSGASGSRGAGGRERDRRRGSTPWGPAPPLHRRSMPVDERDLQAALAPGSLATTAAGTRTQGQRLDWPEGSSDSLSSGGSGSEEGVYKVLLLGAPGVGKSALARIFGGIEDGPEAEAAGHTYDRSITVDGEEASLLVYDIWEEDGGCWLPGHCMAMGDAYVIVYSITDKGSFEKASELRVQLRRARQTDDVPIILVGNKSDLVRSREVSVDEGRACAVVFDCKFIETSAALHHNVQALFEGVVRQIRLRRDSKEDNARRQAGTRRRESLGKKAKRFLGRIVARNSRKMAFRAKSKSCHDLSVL

other: Kd,EFF (FRET 2-hybrid, relative) (reference: WT Rad with PKAcat, sites S25,S38,S272,S300): stronger; reference 145231 ± 3084
Substance: Rad (from UniProt O88667) 4-SA Rad with PKAcat

other: Kd,EFF (FRET 2-hybrid, relative) (reference: WT Rad, no PKAcat, sites S25,S38,S272,S300): weaker; reference 7957 ± 418
Substance: Rad (from UniProt O88667) WT Rad, PKAcat co-expressed

other: Kd,EFF (FRET 2-hybrid, relative) (reference: 4-SA Rad, no PKAcat): same; reference 4346± 197
Substance: Rad (from UniProt O88667) 4-SA Rad, PKAcat co-expressed
